In patent publication US20210388081A1 (Memorial Sloan Kettering, published 2021):
Substitutions are numbered along the chain they refer to.

T1: FcRL1, overexpressed on 3T3 cells (UniProt Q96LA6 17-429, limits assumed)
T1 construct: whole, on cells
T1 sequence (looked up): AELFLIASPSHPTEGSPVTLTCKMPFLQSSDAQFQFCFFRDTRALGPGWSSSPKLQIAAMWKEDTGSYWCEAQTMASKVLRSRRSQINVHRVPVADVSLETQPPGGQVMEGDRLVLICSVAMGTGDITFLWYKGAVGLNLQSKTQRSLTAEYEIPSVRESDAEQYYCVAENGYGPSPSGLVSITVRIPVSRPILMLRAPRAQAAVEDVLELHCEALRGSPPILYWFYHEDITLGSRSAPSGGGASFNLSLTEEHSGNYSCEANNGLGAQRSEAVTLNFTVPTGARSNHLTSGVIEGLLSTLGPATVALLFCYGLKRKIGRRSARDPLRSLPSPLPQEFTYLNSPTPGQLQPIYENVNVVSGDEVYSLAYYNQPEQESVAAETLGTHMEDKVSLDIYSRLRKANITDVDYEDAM

T2: FcRL2, overexpressed on 3T3 cells (UniProt Q96LA5 20-508, limits assumed)
T2 construct: whole, on cells
T2 sequence (looked up): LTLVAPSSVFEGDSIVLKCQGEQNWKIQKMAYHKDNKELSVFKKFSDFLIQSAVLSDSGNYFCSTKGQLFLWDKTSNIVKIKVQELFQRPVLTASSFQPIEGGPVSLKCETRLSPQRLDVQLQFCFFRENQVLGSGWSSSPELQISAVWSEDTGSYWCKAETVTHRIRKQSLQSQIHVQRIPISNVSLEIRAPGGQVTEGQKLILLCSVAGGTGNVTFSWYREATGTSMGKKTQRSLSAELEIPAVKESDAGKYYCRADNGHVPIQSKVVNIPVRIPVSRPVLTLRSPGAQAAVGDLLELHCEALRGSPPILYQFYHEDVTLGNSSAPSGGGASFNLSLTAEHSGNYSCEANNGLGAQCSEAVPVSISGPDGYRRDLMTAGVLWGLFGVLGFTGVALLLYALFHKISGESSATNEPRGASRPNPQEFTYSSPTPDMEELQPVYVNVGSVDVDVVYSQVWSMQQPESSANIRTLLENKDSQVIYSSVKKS

T3: FcRL4, overexpressed on 3T3 cells (UniProt Q96PJ5 20-515, limits assumed)
T3 construct: whole, on cells
T3 sequence (looked up): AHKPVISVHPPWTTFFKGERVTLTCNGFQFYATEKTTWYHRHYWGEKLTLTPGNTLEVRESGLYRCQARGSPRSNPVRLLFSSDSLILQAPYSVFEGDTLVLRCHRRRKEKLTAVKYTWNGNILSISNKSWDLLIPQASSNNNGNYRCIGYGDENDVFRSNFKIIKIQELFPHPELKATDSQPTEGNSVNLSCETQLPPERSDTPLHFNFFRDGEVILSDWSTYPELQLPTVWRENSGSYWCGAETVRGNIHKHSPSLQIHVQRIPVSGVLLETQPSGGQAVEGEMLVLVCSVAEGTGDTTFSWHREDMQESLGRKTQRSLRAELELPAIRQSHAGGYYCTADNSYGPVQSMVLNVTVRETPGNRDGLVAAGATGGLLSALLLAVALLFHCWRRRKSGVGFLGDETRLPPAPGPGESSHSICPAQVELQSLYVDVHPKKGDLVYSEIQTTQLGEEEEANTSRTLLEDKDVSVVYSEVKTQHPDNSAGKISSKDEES

T4: Fc Receptor-like 5 (FcRL5), full length, overexpressed on 3T3 or Raji cells (human, UniProt Q96RD9 16-977)
T4 construct: also called 3T3-FcRL5
T4 sequence: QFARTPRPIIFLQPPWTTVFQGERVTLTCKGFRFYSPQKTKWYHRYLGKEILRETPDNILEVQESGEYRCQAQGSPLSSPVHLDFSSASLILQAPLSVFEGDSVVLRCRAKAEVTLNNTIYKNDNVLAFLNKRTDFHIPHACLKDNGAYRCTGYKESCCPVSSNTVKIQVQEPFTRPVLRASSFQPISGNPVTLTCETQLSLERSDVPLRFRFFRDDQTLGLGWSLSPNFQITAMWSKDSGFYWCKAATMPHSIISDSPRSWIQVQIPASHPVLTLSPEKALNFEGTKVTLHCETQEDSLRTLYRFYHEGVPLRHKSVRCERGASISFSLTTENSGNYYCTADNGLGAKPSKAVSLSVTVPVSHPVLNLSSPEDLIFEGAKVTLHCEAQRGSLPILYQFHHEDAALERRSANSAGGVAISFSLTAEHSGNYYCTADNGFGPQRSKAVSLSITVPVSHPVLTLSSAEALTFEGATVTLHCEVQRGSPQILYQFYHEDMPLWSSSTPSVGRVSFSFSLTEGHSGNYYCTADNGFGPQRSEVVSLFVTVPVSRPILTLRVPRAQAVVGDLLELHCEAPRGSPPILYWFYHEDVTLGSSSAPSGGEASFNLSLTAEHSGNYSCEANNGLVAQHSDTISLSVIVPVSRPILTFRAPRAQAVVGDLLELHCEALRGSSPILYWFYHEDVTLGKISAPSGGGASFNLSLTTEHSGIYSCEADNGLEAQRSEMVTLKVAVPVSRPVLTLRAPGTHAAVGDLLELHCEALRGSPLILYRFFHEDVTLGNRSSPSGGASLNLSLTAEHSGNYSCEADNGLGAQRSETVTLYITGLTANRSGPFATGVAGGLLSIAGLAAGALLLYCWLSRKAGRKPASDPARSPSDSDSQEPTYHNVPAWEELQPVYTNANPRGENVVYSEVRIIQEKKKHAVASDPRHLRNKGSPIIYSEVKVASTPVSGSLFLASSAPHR

B1: ET200-022 (scFv)
scFv: QSVVTQPPSVSAAPGQKVTISCSGSSSNIGNNYVSWYQQLPGTAPKLLIYDNNKRPSGIPDRFSGSKSGTSATLGITGLQTGDEADYYCGTWDSSLGAPYVFGTGTKVTVLGSRGGGGSGGGGSGGGGSLEMAEVQLVQSWGGSEQPGRSLRLSCAASGFTFDDYAMHWVRQAPGKGLEWVSGISWNSGSIGYADSVKGRFTISRDNAKNSLYLQMNSLRAEDTAMYYCARYRQVGSAYDSWGQGTLVTVSSTSGQAGQHHHHHHGAYPYDVPDYAS
notes: screened as phage clone; entry is VL-linker-VH-His tag-HA tag
B2: ET200-021 (scFv)
scFv: QSVLTQPPSVSAAPGQKVTISCSGSNSNIGNNYVSWYQQLPGTAPKLLIYDNNKRPSGIPDRFSGSRSGTSATLGITGLQTGDEADYYCGTWNTTVTPGYVFGTGTKVTVLGSRGGGGSGGGGSGGGGSLEMAEVQLVQSGAEVKKPGASVKVSCKASGYTFTSYGISWVRQAPGQGLEWMGWISAYNGNTNYAQKLQGRVTMTTDTSTSTAYMELRSLRSDDTAMYYCARSVYDLDTWGQGTLVTVSSTSGQAGQHHHHHHGAYPYDVPDYAS
notes: as for B1
B3: ET200-039 (scFv)
scFv: NFMLTQPHSVSESPGKTVTISCTRSSGSIASNYVQWYQQRPGSSPTTVIYEDNQRPSGVPDRFSGSIDSSSNSASLTISGLKTEDEADYYCQSYDSSNWVFGGGTKLTVLGSRGGGGSGGGGSGGGGSLEMAEVQLVQSGAEVKKPGSSVKVSCKASGGTFSSYAISWVRQAPGQGLEWMGGIIPIFGTANYAQKFQGRVTITADESTSTAYMELSSLRSEDTAVYYCARSNYYYNDYWGQGTLVTVSSTSGQAGQHHHHHHGAYPYDVPDYAS
notes: screened as phage clone; entry is VL-linker-VH-His tag-HA tag; also called ET200-39
B4: ET200-026 (scFv)
scFv: B3 scFv with R24G, S44A, S231N, Y233H
notes: as for B1
B5: ET200-035 (scFv)
scFv: B3 scFv with S44A, S97T, E133Q, S231Y, Y235F
notes: as for B1
B6: ET200-019 (scFv)
scFv: NFMLTQPHSVSESPGKTVTISCTRSSGSIASNYVQWYQQRPGSAPTTVIYEDNQRPSGVPDRFSGSIDSSSNSASLTISGLKTEDEADYYCQSYDSSNSWVFGGGTKLTVLGSRGGGGSGGGGSGGGGSLEMAQVQLVQSGAEVKRPGSSVKVSCTASGGTFSSDAISWVRQAPGQGLEWMGGIIPMFGTANYAQKFQGRVTITADESTSTAYMELSSLRSEDTAVYYCAREGYYYPSAYLGSVLNDISSVYDEWGQGTLVTVSSTSGQAGQHHHHHHGAYPYDVPDYAS
notes: as for B1
B7: ET200-020 (scFv)
scFv: QSVVTQPPSVSAAPGQKVTISCSGSTSNIGNNDVSWYQQLPGTAPKLLIYDNNKRPSGIPDRFSGSKSGTSATLGITGLQTGDEADYYCGTWDSSVSASWVFGRGTKLTVLGSRGGGGSGGGGSGGGGSLEMAQVQLVQSGAEVKKPGASVKVSCKASGYTFTSYGISWVRQAPGQGLEWMGWISAYNGNTNYPQKLQGRVTMTTDPSTSTAYMELRSLRSDDTAVYYCARSMTSFDYWGQGTLVTVSSTSGQAGQHHHHHHGAYPYDVPDYAS
notes: as for B1
B8: ET200-023 (scFv)
scFv: LPVLTQPPSVSVAPGKTARITCGGNNIGSKSVHWYQQKPGQAPVLVVYADSDRPSGIPERFSGSNSGNTATLTISRVEAGDEADYYCQVWDSSSYHNYVFGTGTKVTVLGSRGGGGSGGGGSGGGGSLEMAEVQLVQSGAEVKKPGASVKVSCKASGYTFTSYGISWVRQAPGQGLEWMGWISAYNGNTNYAQKLQGRVTMTTDTSTSTAYMELSSLRSEDTAMYYCARYWGFGVSDRWGQGTLVTVSSTSGQAGQHHHHHHGAYPYDVPDYAS
notes: as for B1
B9: ET200-027 (scFv)
scFv: QSVLTQPPSVSGAPGQGVTIPCTGSSSNIGAGYDVHWYQQLPGTAPKLLIYGNNNRPSGVPDRFSGSRSGSSASLAITGLQAEDEADYYCQSYDSSLSDVVFGGGTKVTVLGSRGGGGSGGGGSGGGGSLEMAEVQLVQSGAEVKKPGATVKISCKVSGYTFTDYYMHWVQQAPGKGLEWMGLVDPEDGETIYAEKFQGRVTITADTSTDTAYMELSSLRSEDTAVYYCARYWSYSFDYLYMPEGNDWWGQGTLVTVSSTSGQAGQHHHHHHGAYPYDVPDYAS
notes: as for B1

target: SLAMF9 protein (UniProt Q96A28 19-236, limits assumed); assay: phage clone on SLAMF9 protein
Sequence (Q96A28 19-236 limits assumed): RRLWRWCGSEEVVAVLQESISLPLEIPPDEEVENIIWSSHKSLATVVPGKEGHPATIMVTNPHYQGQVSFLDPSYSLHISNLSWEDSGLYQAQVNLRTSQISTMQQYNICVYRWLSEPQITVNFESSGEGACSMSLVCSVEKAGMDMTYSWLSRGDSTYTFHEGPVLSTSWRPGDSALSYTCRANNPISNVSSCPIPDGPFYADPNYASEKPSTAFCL

Question: Does B1 bind?
Answer: no binding

Question: Does B2 bind?
Answer: no binding

Question: Does B3 bind?
Answer: no binding

Question: Does B4 bind?
Answer: no binding

Question: Does B5 bind?
Answer: no binding

Question: Does B6 bind?
Answer: no binding

Question: Does B7 bind?
Answer: no binding

Question: Does B8 bind?
Answer: no binding

Question: Does B9 bind?
Answer: no binding

target: T1, FcRL1, overexpressed on 3T3 cells; assay: phage clone on 3T3-FcRL1 cells

Question: Does B1 bind?
Answer: no binding

Question: Does B2 bind?
Answer: no binding

Question: Does B3 bind?
Answer: no binding

Question: Does B4 bind?
Answer: no binding

Question: Does B5 bind?
Answer: no binding

Question: Does B6 bind?
Answer: no binding

Question: Does B7 bind?
Answer: no binding

Question: Does B8 bind?
Answer: no binding

Question: Does B9 bind?
Answer: no binding

target: T2, FcRL2, overexpressed on 3T3 cells; assay: phage clone on 3T3-FcRL2 cells

Question: Does B1 bind?
Answer: no binding

Question: Does B2 bind?
Answer: no binding

Question: Does B3 bind?
Answer: no binding

Question: Does B4 bind?
Answer: no binding

Question: Does B5 bind?
Answer: no binding

Question: Does B6 bind?
Answer: no binding

Question: Does B7 bind?
Answer: no binding

Question: Does B8 bind?
Answer: no binding

Question: Does B9 bind?
Answer: no binding

target: T3, FcRL4, overexpressed on 3T3 cells; assay: phage clone on 3T3-FcRL4 cells

Question: Does B1 bind?
Answer: no binding

Question: Does B2 bind?
Answer: no binding

Question: Does B3 bind?
Answer: no binding

Question: Does B4 bind?
Answer: no binding

Question: Does B5 bind?
Answer: no binding

Question: Does B6 bind?
Answer: no binding

Question: Does B7 bind?
Answer: no binding

Question: Does B8 bind?
Answer: no binding

Question: Does B9 bind?
Answer: no binding

target: T4, Fc Receptor-like 5 (FcRL5), full …; assay: phage clone screening on cells
Procedure: Once selected, positive scFv clones are further tested for their binding to FcRL5 (e.g., human FcRL5) on live 3T3 cell surfaces by flow cytometry. Briefly, phage clones are incubated with 3T3 cells over-expressing FcRL5. The cells are washed and then incubated with a mouse anti-M13 coat protein mAb. Cells are washed again and labeled with a PE-horse anti-mouse Ig prior to flow cytometry.
Phage′ display against FcRL5 was performed to enrich for scFv phage clones that bind to FcRL5 specifically. Screening was carried out on FcRL5 overexpressing 3T3 cells or 3T3 cells expressing FcRL1, 2, 3, 4 or 6 as a negative control (FIG. 2).

Question: Does B1 bind?
Answer: binds

Question: Does B2 bind?
Answer: binds

Question: Does B3 bind?
Answer: binds

Question: Does B4 bind?
Answer: binds

Question: Does B5 bind?
Answer: binds

Question: Does B6 bind?
Answer: binds

Question: Does B7 bind?
Answer: binds

Question: Does B8 bind?
Answer: binds

Question: Does B9 bind?
Answer: binds
